Source: US11434267B2, “Peptides having reduced toxicity that stimulate cholesterol efflux” (The Regents of the University of California, priority 2013, dated 2022)
Entries after “also recorded” stand apart in the source; their conditions may differ.

What was measured:
[1] = tested on: New Zealand White rabbits; assay: High-dose IV bolus toxicity of ATI-5261 in rabbits (plasma ALT, AST, TG, cholesterol); format: in vivo, rabbit
Description: Peptides or peptidomeimetics of the invention can be evaluated for toxicity using known assays. Examples of such assays are illustrated in the Examples section. Toxicity is typically assayed in a rat, rabbit, mouse, monkey or dog model. […] Safety chemistry panels including plasma alanine aminotransferase (ALT), aspartate amino transferase (AST), and creatine kinase (CK) can then be determined in the blood. The presence of elevated levels of these enzymes in the blood compared to control normal values is indicative of toxicity. A peptide of the invention is typically considered to be non-toxic or to have little toxicity, when the results using the highest dose, 300 mg/kg in this illustrative assay, are equivalent (fall within the standard deviation) of the values measured for the control animals that received vehicle alone, or are no more than 2 or 3 times background obtained with vehicle alone. […]
Cytotoxicity of an HDL mimetic peptide ATI-5261 at high doses was evaluated in rats and rabbits (FIG. 1). […]
For the experiments in FIG. 2, male chow-fed Wistar rats (Panels A and B) were administered ATI-5261 at doses of 3, 30, and 300 mg/kg as described in FIG. 1. Plasma triglyceride (TG, Panel A) and unesterified cholesterol (Panel B) concentrations were determined enzymatically at the times indicated. […]

[2] = tested on: cynomolgus monkeys; assay: IV infusion toxicity of ATI-5261 in monkeys; format: in vivo, cynomolgus monkey
Method: Male (upper panel) and female (lower panel) cynomolgus monkeys were administered ATI-5261 at a fixed dose of 100 mg/kg by IV infusion (60 min) every 96 hours for a total of 4 injections. Blood was collected 24 h post infusion and levels of plasma ALT, AST, creatine kinase (CPK), and total and indirect bilirubin determined. Values are expressed as a fold-increase vs. pre-dose levels.

[3] = tested on: C57Bl/6 mice; format: in vivo; settings: 300 mg/kg IP, male chow-fed C57Bl/6 mice
Method: The high-dose cytotoxic response of ATI-5261 observed in rat, rabbit and cynomolgus monkey is additionally recapitulated in mice (FIG. 4). Male chow-fed C57bl/6 mice were injected intraperitonelly (IP) with 30 or 300 mg/kg of lipid-fee ATI-5261. Blood was collected via the retro-orbital plexus 4 h after peptide injection and plasma subsequently obtained for measurement of CPK (Panel A) and ALT and AST activities (Panel B, ALT left bars, AST, right bars). Values are means±SD, n=4 mice per group.
This example illustrates that aromatic phenylalanine residues associated with the non-polar surface of ATI-5261 contributed to the majority of the peptide toxicity (FIG. 5). […] Blood was collected via retro-orbital plexus 4 h after injection for isolation of plasma. Levels of plasma CPK (Panel A), ALT (panel B) and AST (Panel C) were determined as described in FIG. 1. Values are means±SD, n=4 mice per group.
The concentrations of plasma lipids in C57Bl/6 mice following administration of the aliphatic analogs of ATI-5261 was also determined. […] All values (mg/dl) are means±SD, n=4, determined at 4 and 6 h post treatment with peptide.

[4] = molecular target: T1, ABCA1 (Mus musculus, UniProt P41233); assay: ABCA1-dependent cholesterol efflux from [3H]cholesterol-labeled J774 macrophages with and without cAMP; format: cell-based; settings: cAMP treated J774, dose response, 4 h
T1 construct: treated (18 h) with a cAMP analog to induce ABCA1 protein expression; endogenous in cells; host or cells: J774 macrophages
T1 sequence (P41233 whole entry): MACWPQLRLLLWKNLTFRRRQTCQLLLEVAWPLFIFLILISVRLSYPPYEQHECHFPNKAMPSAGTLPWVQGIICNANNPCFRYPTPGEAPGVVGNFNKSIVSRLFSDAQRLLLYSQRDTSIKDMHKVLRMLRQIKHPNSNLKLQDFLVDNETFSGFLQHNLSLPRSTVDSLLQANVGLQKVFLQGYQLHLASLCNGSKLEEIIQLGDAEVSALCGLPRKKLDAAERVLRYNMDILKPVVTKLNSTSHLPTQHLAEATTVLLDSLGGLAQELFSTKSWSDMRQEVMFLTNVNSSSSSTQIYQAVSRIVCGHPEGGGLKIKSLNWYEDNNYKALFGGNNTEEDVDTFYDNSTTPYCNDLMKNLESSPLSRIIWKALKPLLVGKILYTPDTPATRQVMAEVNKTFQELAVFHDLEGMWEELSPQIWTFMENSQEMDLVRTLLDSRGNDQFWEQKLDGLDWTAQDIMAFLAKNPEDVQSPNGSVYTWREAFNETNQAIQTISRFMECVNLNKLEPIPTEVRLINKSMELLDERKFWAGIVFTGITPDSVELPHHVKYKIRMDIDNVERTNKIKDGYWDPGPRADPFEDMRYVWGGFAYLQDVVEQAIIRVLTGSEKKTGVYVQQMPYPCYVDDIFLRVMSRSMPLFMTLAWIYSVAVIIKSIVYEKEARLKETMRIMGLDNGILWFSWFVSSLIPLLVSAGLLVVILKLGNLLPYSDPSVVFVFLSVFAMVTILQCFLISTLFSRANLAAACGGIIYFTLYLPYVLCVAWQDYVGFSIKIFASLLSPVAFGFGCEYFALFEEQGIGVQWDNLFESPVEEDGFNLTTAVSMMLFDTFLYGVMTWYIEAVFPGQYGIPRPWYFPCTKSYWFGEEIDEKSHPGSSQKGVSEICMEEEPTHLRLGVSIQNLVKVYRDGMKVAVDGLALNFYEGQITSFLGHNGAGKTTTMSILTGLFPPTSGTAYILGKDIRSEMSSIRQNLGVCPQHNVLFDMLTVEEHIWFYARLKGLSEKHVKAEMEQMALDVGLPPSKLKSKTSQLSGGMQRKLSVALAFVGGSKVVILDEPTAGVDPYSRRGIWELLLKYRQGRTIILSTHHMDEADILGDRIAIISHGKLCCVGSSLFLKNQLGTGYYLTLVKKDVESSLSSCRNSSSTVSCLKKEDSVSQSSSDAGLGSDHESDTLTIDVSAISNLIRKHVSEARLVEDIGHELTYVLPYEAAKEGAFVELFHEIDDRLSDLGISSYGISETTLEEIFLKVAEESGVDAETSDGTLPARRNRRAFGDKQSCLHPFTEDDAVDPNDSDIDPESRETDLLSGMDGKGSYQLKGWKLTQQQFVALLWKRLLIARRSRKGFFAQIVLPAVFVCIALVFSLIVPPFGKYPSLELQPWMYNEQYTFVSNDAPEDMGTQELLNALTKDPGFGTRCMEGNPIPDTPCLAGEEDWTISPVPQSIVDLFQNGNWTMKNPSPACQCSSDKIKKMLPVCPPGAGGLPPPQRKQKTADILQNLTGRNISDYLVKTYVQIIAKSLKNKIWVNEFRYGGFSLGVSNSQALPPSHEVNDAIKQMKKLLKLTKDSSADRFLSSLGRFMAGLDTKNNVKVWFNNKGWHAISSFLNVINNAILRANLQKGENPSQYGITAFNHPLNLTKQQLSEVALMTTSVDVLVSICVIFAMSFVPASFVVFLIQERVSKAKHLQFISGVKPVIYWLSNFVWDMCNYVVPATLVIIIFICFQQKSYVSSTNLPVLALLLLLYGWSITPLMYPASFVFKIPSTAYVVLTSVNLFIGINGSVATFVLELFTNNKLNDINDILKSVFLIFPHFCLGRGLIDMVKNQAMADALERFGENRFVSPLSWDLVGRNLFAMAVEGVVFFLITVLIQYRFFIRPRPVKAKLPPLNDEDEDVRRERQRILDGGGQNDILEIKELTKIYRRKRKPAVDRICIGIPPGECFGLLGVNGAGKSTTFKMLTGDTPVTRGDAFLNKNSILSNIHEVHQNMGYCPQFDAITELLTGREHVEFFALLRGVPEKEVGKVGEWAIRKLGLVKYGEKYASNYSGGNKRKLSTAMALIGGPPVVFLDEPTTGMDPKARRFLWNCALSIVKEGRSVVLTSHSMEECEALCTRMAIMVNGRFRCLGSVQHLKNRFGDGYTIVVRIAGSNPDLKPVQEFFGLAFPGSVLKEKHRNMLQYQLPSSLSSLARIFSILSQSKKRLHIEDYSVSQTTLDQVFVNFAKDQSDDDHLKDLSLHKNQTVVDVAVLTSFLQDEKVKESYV
Description: Suitable cholesterol efflux assays are described in, e.g., Bielicki, J. K and Oda, M. N., Biochemistry, 41:2089-2096 (2002); Jia et al., Biochem. Biophys. Res. Common., 297:206-213 (2002). In some embodiments, a polypeptide known to mediate cholesterol efflux (e.g., helix 9/10 of Apo A-I) is used to screen for additional mediators of cholesterol efflux in a cell based assay. For example, cell lines in which cholesterol efflux can be enhanced using a cAMP analog that up-regulates ABCA1 protein expression (e.g., J774 macrophages) can conveniently be used to assess the ability of a polypeptide of the present invention to mediate cholesterol efflux. The cells are incubated with labeled cholesterol (e.g., [^3H]cholesterol) under conditions appropriate for cholesterol uptake by the cells. Thus, cAMP or cAMP analogs (e.g., CPT-cAMP) are incubated with the cells for a suitable time before the initiation of cellular cholesterol efflux, i.e., prior to contacting the cells with a test polypeptide. Measurement of labeled cholesterol appearing in the medium is used to determine the cholesterol efflux mediating activity of the test polypeptide.
Aliphatic analogs of ATI-5261 lacking phenylalanine residues retained potent ABCA1 selective cholesterol efflux activity (FIG. 7). J774 macrophages were labeled (48 h) with [^3H]cholesterol and treated (18 h) with a cAMP analog to induce ABCA1 protein expression; cells incubated in the absence of cAMP (left bars) served as controls. […] Peptides were used at a concentration of 30 μg/ml, which was maximal for promoting cholesterol efflux activity. Panel B—Dependence of cholesterol efflux on the concentration of peptides. […] Results are expressed as the difference in cholesterol efflux (%/4 h) observed using cAMP treated vs. non-treated J774 cells. Values are means±SD, n=3.

[5] = tested on: C57Bl/6 mice; settings: mouse, in vivo, ip, 300 mg/kg
[6] = molecular target: T1, ABCA1; assay: ABCA1-dependent cholesterol efflux from [3H]cholesterol-labeled J774 macrophages with and without cAMP; format: cell-based; settings: J774, cAMP vs no cAMP; 10 μg/ml lipid-free

ATI-5261: HDL mimetic peptide, parent peptide with phenylalanine and arginine residues; toxic at high doses; used as positive control (EVRSKLEEWFAAFREFAEEFLARLKS)
plasma triglycerides and unesterified cholesterol ([1]; single IV bolus): increased plasma triglycerides and cholesterol
cytotoxic response (plasma ALT, AST) ([1]; single IV bolus 3, 30 or 300 mg/kg): induced a cytotoxic response
cytotoxic response (ALT, AST, CPK, bilirubin) ([2]; 100 mg/kg IV infusion (60 min) every 96 hours, 4 injections, 24 h post infusion): induced a cytotoxic response
plasma creatine kinase, fold-increase vs. pre-dose ([2]; 100 mg/kg IV infusion, after the first infusion, male and female): marked increase
TG elevating effect (plasma TG, cholesterol) ([3]; 4 and 6 h): marked increase in plasma TG, total and unesterified (free) cholesterol (FC)
cytotoxic/toxic response (plasma CPK, ALT, AST) ([3]; 4 h): High levels of cytotoxic markers
peptide concentration at saturation of cholesterol efflux [4]: roughly 3 μg/ml
triglyceride (TG) [5]: triglyceride (TG) elevation effects
ABCA1-dependent cholesterol efflux activity [6]: stimulated an overall greater efflux response; also recorded: stimulated a greater efflux response
